Results from IntAct's records for PubMed 18029035.

B1: Coiled-coil domain-containing protein 50 (Homo sapiens), Q8IVM0 (parent)
chain: MAEVSIDQSKLPGVKEVCRDFAVLEDHTLAHSLQEQEIEHHLASNVQRNRLVQHDLQVAKQLQEEDLKAQAQLQKRYKDLEQQDCEIAQEIQEKLAIEAERRRIQEKKDEDIARLLQEKELQEEKKRKKHFPEFPATRAYADSYYYEDGGMKPRVMKEAVSTPSRMAHRDQEWYDAEIARKLQEEELLATQVDMRAAQVAQDEEIARLLMAEEKKAYKKAKEREKSSLDKRKQDPEWKPKTAKAANSKSKESDEPHHSKNERPARPPPPIMTDGEDADYTHFTNQQSSTRHFSKSESSHKGFHYKH

Variants of: B1
Settings: with ubb_human UBB

Row | Variant | effect of a mutation on the interaction
1 | L116P | decreasing interaction
